Data taken from patent US20250242034A1, “PHOSPHORAMIDATE-BASED PSMA-TARGETED SMALL-MOLECULE DRUG CONJUGATES” (priority 2022, published 2025).
Read-outs that look alike come from different tables or passages of the source. Square brackets hold non-standard residues; d marks the D form. Peptide text beside a SMILES is read from it. * marks the point of attachment. Dolaproine = CO[C@@H]([C@@H]1CCCN1)[C@@H](C)C(=O)O; Dil = CC[C@H](C)[C@H](NC)[C@@H](CC(=O)O)OC; X1 = C[C@@H](N*)[C@@H](O)c1ccccc1; NMeV = CN[C@H](C(=O)O)C(C)C

Tests used:
PSMA = PSMA (Homo sapiens, UniProt Q04609); assay: PSMA binding (IC50 values for PSMA)
Sequence of PSMA (Q04609 whole entry): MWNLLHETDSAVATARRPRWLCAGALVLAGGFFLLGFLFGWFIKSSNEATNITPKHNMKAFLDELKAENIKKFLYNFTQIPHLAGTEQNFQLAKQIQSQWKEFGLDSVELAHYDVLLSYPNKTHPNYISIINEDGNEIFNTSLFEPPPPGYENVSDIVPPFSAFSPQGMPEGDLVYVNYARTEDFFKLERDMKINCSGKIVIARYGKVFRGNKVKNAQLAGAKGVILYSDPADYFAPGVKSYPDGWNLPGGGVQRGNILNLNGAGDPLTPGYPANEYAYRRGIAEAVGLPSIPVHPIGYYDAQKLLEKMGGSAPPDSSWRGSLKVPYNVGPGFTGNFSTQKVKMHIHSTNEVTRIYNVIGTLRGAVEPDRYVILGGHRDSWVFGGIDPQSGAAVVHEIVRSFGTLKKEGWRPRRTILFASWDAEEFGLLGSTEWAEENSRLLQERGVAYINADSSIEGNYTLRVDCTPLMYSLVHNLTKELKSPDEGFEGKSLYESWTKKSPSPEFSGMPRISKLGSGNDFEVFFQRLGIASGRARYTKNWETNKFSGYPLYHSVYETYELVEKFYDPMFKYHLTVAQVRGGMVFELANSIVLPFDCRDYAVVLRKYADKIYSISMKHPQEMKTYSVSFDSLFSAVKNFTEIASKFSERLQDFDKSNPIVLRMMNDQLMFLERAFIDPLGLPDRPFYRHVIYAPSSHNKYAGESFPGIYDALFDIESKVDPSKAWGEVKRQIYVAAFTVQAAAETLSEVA

[1] = system: PSMA+ PC3-PIP tumor cells; assay type: in vivo, NCr nude mice; conditions: n=8; for time until animals reached end point criteria / end point tumor burden after first administration: IV once weekly for 6 weeks, SMDCs 0.8 mg/kg, MMAE 0.2 mg/kg
Protocol: Efficacy Study Design: NCr nude mice (age 6-8 weeks) injected with 1×10^6 PC3 PiP cells (1:1 in saline with Matrigel, 100 μL total volume) subcutaneously to right rear flank. Tumors were allowed to grow until approximate size of 100 mm^3 (roughly 2-3 weeks) before starting compound treatments. Treatment consisted of an injection of the appropriate compound to the lateral tail vein (100 μL bolus) once a week for the first 6 weeks of the study. Efficacy treatment groups were 8 animals each of: 1) saline, 2) MMAE alone, 0.2 mg/kg (molar equivalent to the MMAE conjugated to the small molecules), 3) CTT1700 (structure noted below), 0.8 mg/kg, 4) 1, 0.8 mg/kg, and 5) 2, 0.8 mg/kg. Tumor sizes were measured twice weekly for the duration of the study and mortality noted for survival curves. Animals were sacrificed if tumor condition reached IACUC standards for euthanasia (tumor burden of >1.5 cm in any axis, ulceration, >20% weight loss). Blood draws were taken via superficial temporal vein at 0, 4, 7 and 10 weeks and CBCs with 3-part differential measured.
(§1) To evaluate efficacy of SMDCs 1 and 2 in preclinical models of human PCa, we employed xenograft tumor models derived from PSMA+ PC3-PIP tumor cells implanted subcutaneously in the right rear flank of NCr nude mice (6-8 weeks old). […] Tumor sizes were measured twice weekly for the duration of the study and mortality noted for survival curves for 90 days after first administration. Animals were euthanized if tumor or mouse condition reached IACUC standards for euthanasia (tumor burden of >1.5 cm in any axis, ulceration, >20% mouse weight loss). Blood draws were taken via superficial temporal vein at 0, 4, 7 and 10 weeks, and complete blood count (CBC) analysis was performed with a 3-part differential measurement.

[2] = Compound residence study (PK): plasma and tissue levels of parent drug and MMAE by LC-MS/MS; assay type: in vivo, NCr nude mice; conditions: for Tumor AUC0-t, MMAE / Tumor Cmax, MMAE / Tumor AUC0-t, Parent / Tumor Cmax, Parent: PC3-PiP tumor; for Tumor AUC0-t, MMAE / Tumor Cmax, MMAE / Kidney AUC0-t, MMAE / Kidney Cmax, MMAE / Plasma % extrapolated, MMAE: analyte MMAE payload; for parent drug concentrations in tissues other than tumor: 0.8 mg/kg; for fraction of drug that is estimated to release MMAE: calculated from apparent MMAE formation clearance and reported MMAE clearance
Protocol: Compound Residence study design (PK Studies): Three volumes of PBS, pH 7.4, were added to tumor, kidney, and lacrimal tissues and 10 volumes of PBS, pH 7.4, were added to prostate tissue samples. Tumor, kidney, and prostate samples were homogenized with a homogenizer, and lacrimal tissues were sonicated with a sonicator. Twenty five microliters of plasma or tissue homogenate was added to a microcentrifuge tube followed by 10 μL of internal standard solution and 100 μL of 5 mM ammonium bicarbonate and acetonitrile (25:75 v,v). The sample was then vortexed at a high setting for 1 minute and centrifuged at 17,200×g for 10 minutes. The resultant supernatant was pipetted into an HPLC vial and 10-20 μL was injected into the LC-MS/MS system. […] [^2H8]-MMAE was used as the internal standard for MMAE. […] A SCIEX 6500+ Qtrap LC-MS/MS system consisting of an Agilent (Palo Alto, CA 94036) 1290 HPLC and Sciex 6500+ QTrap mass detector was used for quantitation of MMAE concentrations. The chromatography consisted of a gradient using of 5 mM ammonium bicarbonate and acetonitrile and the separation was achieved using a Phenomenex (Torrance, CA 90501) Kinetex column (2×50 mm, 2.6 μm). […] Standard curves were linear from 10-10,000 ng/mL for CTT1700, SMDCs 2 and 1 while the MMAE standard curves were linear from 0.01 to 10 ng/mL. A 1/y^2 weighted linear regression was used for all standard curves.
PK parameters were estimated using standard noncompartmental methods with Phoenix WinNonlin (Certara, Princeton, NJ). Plasma parent drugs were derived using the IV bolus approach, while all other data were derived using the extravascular approach.
as §1, with “measurement. For biodistribution studies, blood samples were obtained at 1 and 6 h post a single 0.8 mg/kg dose, followed by euthanasia at 24, 72 and 120 h; LC-MS/MS analysis was performed to determine concentrations of SMDC and MMAE in plasma, tumor, lacrimal gland, kidney, and prostate samples.” for “measurement.”

[3] = reported pharmacokinetics of MMAE dosed directly; assay type: in vivo; conditions: corresponds to 60 mL/h
[4] = cited from earlier work
[5] = 0.8 mg/kg IV once weekly for 6 weeks
[6] = IV 0.8 mg/kg, analyte parent drug
[7] = NCr nude, mouse, IV 0.8 mg/kg, plasma, analyte parent drug, read-out: Plasma Cmax, Parent
[8] = IV 0.8 mg/kg, kidney, analyte parent drug
[9] = IV 0.8 mg/kg, plasma, analyte parent drug

CC[C@H](C)[C@@H]([C@@H](CC(=O)N1CCC[C@H]1[C@H](OC)[C@@H](C)C(=O)N[C@H](C)[C@@H](O)c1ccccc1)OC)N(C)C(=O)[C@@H](NC(=O)[C@H](C(C)C)N(C)C(=O)OCc1ccc(NC(=O)[C@H](CCCNC(N)=O)NC(=O)[C@@H](NC(=O)c2ccc(Cn3nnc4c3-c3ccccc3CN(C(=O)CCC(=O)NCCOCCOCCOCCOCCC(=O)N[C@@H](CCC(=O)NCCCCCC(=O)N[C@@H](CCC(=O)N[C@@H](CCCOP(=O)(O)N[C@@H](CCC(=O)O)C(=O)O)C(=O)O)C(=O)O)C(=O)N[C@H](CCCCNC(=O)CCCc3ccc(I)cc3)C(=O)O)c3ccccc3-4)cc2)C(C)C)cc1)C(C)C [SMDC 1]
IC50 (PSMA; read-out: IC50 for PSMA): 0.0241 ± 0.0021 µM
survival 90 days after initial dosing [1, 5]: Six of eight
therapeutic efficacy (in words) [1, 5]: dramatic efficacy compared to controls
tumor growth response [1, 5]: tumor regression was observed following initiation of administration up until 2 weeks after the last dose, with subsequent slow tumor growth
Tumor AUC0-t, MMAE ([2]; IV 0.8 mg/kg): 1652 ng·days/g
Tumor Cmax, MMAE ([2]; IV 0.8 mg/kg): 509 ng/g
Tumor AUC0-t, Parent [2, 6]: 475 ng·days/g
Tumor Cmax, Parent [2, 6]: 122 ng/g
parent drug concentrations in tissues other than tumor [2, 6]: could not be quantified in any other tissue other than the tumor
parent drug concentrations in tissues other than tumor ([2]; IV 0.8 mg/kg, analyte parent drug, listed as VC): VC concentrations in all tissues other than tumor were below the LLOQ.
Kidney AUC0-t, MMAE ([2]; IV 0.8 mg/kg, kidney): 55.5 ng·days/g
Kidney Cmax, MMAE ([2]; IV 0.8 mg/kg, kidney): 30.6 ng/g
distribution volume of parent SMDC ([2]; IV 0.8 mg/kg, plasma): 0.106 L/kg
Plasma % extrapolated, MMAE ([2]; IV 0.8 mg/kg, plasma AUC): 2.9%
absolute tumor MMAE exposure compared to CTT1700 ([2]; IV 0.8 mg/kg, tumor, higher than control SMDC with non-degradable linker): approximately 6 fold
Cmax [2, 7]: < 10 ng/mL
fraction of drug that is estimated to release MMAE [2]: 38%

CC[C@H](C)[C@@H]([C@@H](CC(=O)N1CCC[C@H]1[C@H](OC)[C@@H](C)C(=O)N[C@H](C)[C@@H](O)c1ccccc1)OC)N(C)C(=O)[C@@H](NC(=O)[C@H](C(C)C)N(C)C(=O)OCc1ccc(OC(=O)N(C)CCN(C)P(=O)(O)OCC[C@H](NC(=O)c2ccc(Cn3nnc4c3-c3ccccc3CN(C(=O)CCC(=O)NCCOCCOCCOCCOCCC(=O)N[C@@H](CCC(=O)NCCCCCC(=O)N[C@@H](CCC(=O)N[C@@H](CCCOP(=O)(O)N[C@@H](CCC(=O)O)C(=O)O)C(=O)O)C(=O)O)C(=O)N[C@H](CCCCNC(=O)CCCc3ccc(I)cc3)C(=O)O)c3ccccc3-4)cc2)C(=O)O)cc1)C(C)C [SMDC 2]
IC50 (PSMA): 0.00174 ± 0.00014 µM

CC[C@H](C)[C@@H]([C@@H](CC(=O)N1CCC[C@H]1[C@H](OC)[C@@H](C)C(=O)N[C@H](C)[C@@H](O)c1ccccc1)OC)N(C)C(=O)[C@@H](NC(=O)[C@@H](NC)C(C)C)C(C)C [MMAE, Monomethyl auristatin E] (H-[NMeV]V[Dil][Dolaproine]-X1)
reported plasma clearance of MMAE, converted [3]: 1960 mL/h/kg
t1/2 reported for MMAE when dosed directly ([4]; MMAE dosed directly): 4.1 h
reported plasma clearance of MMAE ([4]; in vivo): 60 mL/h
time until animals reached end point criteria / end point tumor burden after first administration [1]: ≤ 6 weeks

CC[C@H](C)[C@@H]([C@@H](CC(=O)N1CCC[C@H]1[C@H](OC)[C@@H](C)C(=O)N[C@H](C)[C@@H](O)c1ccccc1)OC)N(C)C(=O)[C@@H](NC(=O)[C@H](C(C)C)N(C)P(=O)(O)OCC[C@H](NC(=O)c1ccc(Cn2nnc3c2-c2ccccc2CN(C(=O)CCC(=O)NCCOCCOCCOCCOCCC(=O)N[C@@H](CCC(=O)NCCCCCC(=O)N[C@@H](CCC(=O)N[C@@H](CCCOP(=O)(O)N[C@@H](CCC(=O)O)C(=O)O)C(=O)O)C(=O)O)C(=O)N[C@H](CCCCNC(=O)CCCc2ccc(I)cc2)C(=O)O)c2ccccc2-3)cc1)C(=O)O)C(C)C [CTT1700, reference compound]
therapeutic efficacy (in words) [1, 5]: moderate efficacy
time until animals reached end point criteria / end point tumor burden after first administration [1]: ≤ 12 weeks
Tumor AUC0-t, MMAE ([2]; IV 0.8 mg/kg): 262 ng·days/g
Tumor Cmax, MMAE ([2]; IV 0.8 mg/kg): 98.7 ng/g
Tumor AUC0-t, Parent [2, 6]: 483 ng·days/g
Tumor Cmax, Parent [2, 6]: 194 ng/g
Kidney AUC0-t, MMAE ([2]; IV 0.8 mg/kg, kidney): 4.00 ng·days/g
Kidney Cmax, MMAE ([2]; IV 0.8 mg/kg, kidney): 1.82 ng/g
Kidney AUC0-t, Parent [2, 8]: 685 ng·days/g
Kidney Cmax, Parent [2, 8]: 400 ng/g
Lacrimal AUC0-t, Parent ([2]; IV 0.8 mg/kg, lacrimal gland, analyte parent drug): 220 ng·days/g
Plasma % extrapolated, MMAE ([2]; IV 0.8 mg/kg, plasma AUC): 28%
Plasma % extrapolated, Parent ([2]; IV 0.8 mg/kg, plasma AUC, analyte parent drug): 1.9%
Plasma AUC0-inf, Parent [2, 9]: 6566 ng·days/mL
Plasma AUC0-t, Parent [2, 9]: 6442 ng·days/mL
Prostate AUC0-t, Parent ([2]; IV 0.8 mg/kg, prostate, analyte parent drug): 647 ng·days/g
Kp ([2]; NCr nude, mouse, kidney/plasma, IV 0.8 mg/kg, analyte parent drug, read-out: Kp (kidney/plasma), Parent): 0.106
Kp ([2]; NCr nude, mouse, lacrimal gland/plasma, IV 0.8 mg/kg, analyte parent drug, read-out: Kp (Lacrimal/plasma), Parent): 0.0342
Kp ([2]; NCr nude, mouse, prostate/plasma, IV 0.8 mg/kg, analyte parent drug, read-out: Kp (prostate/plasma), Parent): 0.1
Kp ([2]; NCr nude, mouse, tumor/plasma, IV 0.8 mg/kg, analyte parent drug, read-out: Kp (tumor/plasma), Parent): 0.075
Cmax ([2]; NCr nude, mouse, IV 0.8 mg/kg, lacrimal gland, analyte parent drug, read-out: Lacrimal Cmax, Parent): 71.9 ng/g
Tmax ([2]; NCr nude, mouse, IV 0.8 mg/kg, plasma, analyte parent drug): 1 h
clearance ([2]; NCr nude, mouse, IV 0.8 mg/kg, plasma, analyte parent drug, read-out: Plasma Cl, Parent (converted)): 5.08 mL/h/kg
Cmax [2, 7]: 7020 ng/mL
Vd ([2]; NCr nude, mouse, IV 0.8 mg/kg, plasma, analyte parent drug, read-out: Plasma Vss, Parent): 0.136 L/kg
half-life ([2]; NCr nude, mouse, IV 0.8 mg/kg, plasma, analyte parent drug, read-out: Plasma t1/2, Parent (converted)): 23 h
Cmax ([2]; NCr nude, mouse, IV 0.8 mg/kg, prostate, analyte parent drug, read-out: Prostate Cmax, Parent): 280 ng/g
fraction of drug that is estimated to release MMAE [2]: 1%
